Test results as given in patent publication US20050037969A1 (ARBOR VITA, published 2005).
Ends that are not written are not given here. * marks the point of attachment. Biotin = O=C1N[C@H]2[C@H](CS[C@H]2CCCCC(=O)*)N1

B1: CC CKR-2 C-terminal peptide AA42L (peptide)
peptide: Biotin-GKGKSIGRAPEASLQDKEGA
notes: Only the last four residues are seen in the excerpts
B2: CC CKR-1R C-terminal peptide AA41L (peptide)
peptide: Biotin-LERVSSTSPSTGEHELSAGF
notes: as for B1
B3: CC CKR-4 C-terminal peptide AA44L (peptide)
peptide: Biotin-DTPSSSYTQSTMDHDLHDAL
notes: as for B1

The binders below were run against T1, GST-RGS12 PDZ domain fusion protein (human, UniProt O14924 17-85) (assay: A/G assays).
T1 construct: also called human regulator of G-protein signalling 12; not shown: glutathione S-transferase encoded by vector pGEX-3X (Pharmacia)
T1 sequence: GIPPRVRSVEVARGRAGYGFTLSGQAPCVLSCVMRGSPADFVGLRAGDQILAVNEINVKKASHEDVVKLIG

Binding result, no binding:
B1
B2
Biotin-ARHRVTSYTSSSVNVSSNL [CDW128A (IL8RA) C-terminal peptide AA29.1L, biotinylated]
Biotin-TSGTGHNQTRALRASESGI (also called CD97 (CD55L)) [CD97 C-terminal peptide AA14L, biotinylated]
B3
Biotin-DLGNMEENKKLEENNHKTEA (also called CD166 (CD6L)) [CD166 C-terminal peptide AA20L, biotinylated]

These binders were tested against T2, K858 PDZ-GST fusion protein (Homo sapiens (Human), UniProt Q8WWI1 1038-1131) (assay: A/G assays).
T2 construct: Order of GST and PDZ part and limits not seen in the excerpts
T2 sequence: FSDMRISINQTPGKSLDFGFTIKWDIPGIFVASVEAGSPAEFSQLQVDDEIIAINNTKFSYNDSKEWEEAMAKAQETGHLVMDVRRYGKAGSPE

Binding result, no binding:
B1
B2
Biotin-ARHRVTSYTSSSVNVSSNL [CDW128A (IL8RA) C-terminal peptide AA29.1L, biotinylated]
Biotin-TSGTGHNQTRALRASESGI (also called CD97 (CD55L)) [CD97 C-terminal peptide AA14L, biotinylated]
B3
Biotin-DLGNMEENKKLEENNHKTEA (also called CD166 (CD6L)) [CD166 C-terminal peptide AA20L, biotinylated]

The binders below were run against T3, GST-KIAA0303 PDZ domain fusion protein (Homo sapiens (Human), UniProt O15021 1138-1228) (assay: A/G assays).
T3 construct: also called K303; not shown: glutathione S-transferase encoded by vector pGEX-3X (Pharmacia)
T3 sequence: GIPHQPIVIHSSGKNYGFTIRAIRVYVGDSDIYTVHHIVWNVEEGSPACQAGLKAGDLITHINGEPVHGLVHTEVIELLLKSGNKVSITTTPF

Binding result, no binding:
B1
B2
Biotin-ARHRVTSYTSSSVNVSSNL [CDW128A (IL8RA) C-terminal peptide AA29.1L, biotinylated]
Biotin-TSGTGHNQTRALRASESGI (also called CD97 (CD55L)) [CD97 C-terminal peptide AA14L, biotinylated]
B3
Biotin-DLGNMEENKKLEENNHKTEA (also called CD166 (CD6L)) [CD166 C-terminal peptide AA20L, biotinylated]

The binders below were run against T4, ConEn PDZ-GST fusion protein (Homo sapiens (Human), UniProt Q969H4 193-287) (assay: A/G assays).
T4 construct: The label ConEn is not explained in the excerpts
T4 sequence: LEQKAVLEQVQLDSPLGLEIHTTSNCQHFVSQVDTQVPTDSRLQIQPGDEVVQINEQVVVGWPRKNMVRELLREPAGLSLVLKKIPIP

Binding result, no binding:
B1
B2
Biotin-ARHRVTSYTSSSVNVSSNL [CDW128A (IL8RA) C-terminal peptide AA29.1L, biotinylated]
Biotin-TSGTGHNQTRALRASESGI (also called CD97 (CD55L)) [CD97 C-terminal peptide AA14L, biotinylated]
B3
Biotin-DLGNMEENKKLEENNHKTEA (also called CD166 (CD6L)) [CD166 C-terminal peptide AA20L, biotinylated]

Each binder was assayed against T5, KIAA0807 (PDZ domain)-GST fusion protein (human, UniProt Q6P0Q8 1104-1192) (assay: A/G assays).
T5 construct: also called K807; KIAA807; not shown: glutathione S-transferase encoded by vector pGEX-3X (Pharmacia)
T5 sequence: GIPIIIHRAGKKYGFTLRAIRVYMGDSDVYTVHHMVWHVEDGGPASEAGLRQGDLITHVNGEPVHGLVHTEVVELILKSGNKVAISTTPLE

Binding result, no binding:
B1
B2
Biotin-ARHRVTSYTSSSVNVSSNL [CDW128A (IL8RA) C-terminal peptide AA29.1L, biotinylated]
Biotin-TSGTGHNQTRALRASESGI (also called CD97 (CD55L)) [CD97 C-terminal peptide AA14L, biotinylated]
B3
Biotin-DLGNMEENKKLEENNHKTEA (also called CD166 (CD6L)) [CD166 C-terminal peptide AA20L, biotinylated]

Each binder was assayed against T6, GST-cytohesin binding protein PDZ domain fusion protein (Homo sapiens (Human), UniProt O60759 74-165) (assay: A/G assays).
T6 construct: also called CBP; not shown: glutathione S-transferase encoded by vector pGEX-3X (Pharmacia)
T6 sequence: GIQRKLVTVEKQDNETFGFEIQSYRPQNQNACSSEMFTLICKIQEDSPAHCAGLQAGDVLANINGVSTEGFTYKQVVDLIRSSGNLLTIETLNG

Binding result, no binding:
B1
B2
Biotin-ARHRVTSYTSSSVNVSSNL [CDW128A (IL8RA) C-terminal peptide AA29.1L, biotinylated]
Biotin-TSGTGHNQTRALRASESGI (also called CD97 (CD55L)) [CD97 C-terminal peptide AA14L, biotinylated]
B3
Biotin-DLGNMEENKKLEENNHKTEA (also called CD166 (CD6L)) [CD166 C-terminal peptide AA20L, biotinylated]

Biological target: T7, MINT3 PDZ-GST fusion protein
T7 construct: Order of GST and PDZ part and limits not seen in the excerpts
T7 chain: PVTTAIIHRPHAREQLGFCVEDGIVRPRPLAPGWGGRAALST
Assay: A/G assays

Binding result, no binding:
B1
B2
Biotin-ARHRVTSYTSSSVNVSSNL [CDW128A (IL8RA) C-terminal peptide AA29.1L, biotinylated]
Biotin-TSGTGHNQTRALRASESGI (also called CD97 (CD55L)) [CD97 C-terminal peptide AA14L, biotinylated]
B3
Biotin-DLGNMEENKKLEENNHKTEA (also called CD166 (CD6L)) [CD166 C-terminal peptide AA20L, biotinylated]

The binders below were run against T8, GST-TAX-IP40 PDZ domain fusion protein (human, UniProt Q6B4M5 150-252 (rat entry)) (assay: A/G assays).
T8 construct: also called TAX40; not shown: glutathione S-transferase encoded by vector pGEX-3X (Pharmacia)
T8 sequence: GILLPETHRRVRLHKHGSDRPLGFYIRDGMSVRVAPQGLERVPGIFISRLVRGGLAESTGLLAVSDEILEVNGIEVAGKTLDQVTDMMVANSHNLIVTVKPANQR

Binding result, no binding:
B1
B2
Biotin-ARHRVTSYTSSSVNVSSNL [CDW128A (IL8RA) C-terminal peptide AA29.1L, biotinylated]
Biotin-TSGTGHNQTRALRASESGI (also called CD97 (CD55L)) [CD97 C-terminal peptide AA14L, biotinylated]
B3
Biotin-DLGNMEENKKLEENNHKTEA (also called CD166 (CD6L)) [CD166 C-terminal peptide AA20L, biotinylated]

The binders below were run against T9, GST-DLG5 (p-dlg) PDZ domain fusion protein (Human, UniProt Q8TDM6 1343-1583) (assay: A/G assays).
T9 construct: also called Human discs large protein p-dlg; not shown: glutathione S-transferase encoded by vector pGEX-3X (Pharmacia)
T9 sequence: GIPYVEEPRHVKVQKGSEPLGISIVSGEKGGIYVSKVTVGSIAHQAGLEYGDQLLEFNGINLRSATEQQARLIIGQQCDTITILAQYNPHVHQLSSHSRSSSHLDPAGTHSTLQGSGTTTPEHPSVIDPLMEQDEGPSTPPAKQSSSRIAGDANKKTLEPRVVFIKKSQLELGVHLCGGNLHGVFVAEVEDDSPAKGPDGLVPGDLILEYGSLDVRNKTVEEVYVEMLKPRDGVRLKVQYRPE

Binding result, no binding:
B1
B2
Biotin-ARHRVTSYTSSSVNVSSNL [CDW128A (IL8RA) C-terminal peptide AA29.1L, biotinylated]
Biotin-TSGTGHNQTRALRASESGI (also called CD97 (CD55L)) [CD97 C-terminal peptide AA14L, biotinylated]
B3
Biotin-DLGNMEENKKLEENNHKTEA (also called CD166 (CD6L)) [CD166 C-terminal peptide AA20L, biotinylated]

Biological target: T10, X11β PDZ-GST fusion protein (Rattus norvegicus (Rat), UniProt O35431 560-745)
T10 construct: Order of GST and PDZ part and limits not seen in the excerpts
T10 chain: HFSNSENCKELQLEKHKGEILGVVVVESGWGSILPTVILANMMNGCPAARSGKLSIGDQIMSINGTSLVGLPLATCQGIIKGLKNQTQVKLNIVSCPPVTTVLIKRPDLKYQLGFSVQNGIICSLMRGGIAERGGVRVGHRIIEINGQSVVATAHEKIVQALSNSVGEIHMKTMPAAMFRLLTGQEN
Assay: A/G assays

Binding result, no binding:
B1
B2
Biotin-ARHRVTSYTSSSVNVSSNL [CDW128A (IL8RA) C-terminal peptide AA29.1L, biotinylated]
Biotin-TSGTGHNQTRALRASESGI (also called CD97 (CD55L)) [CD97 C-terminal peptide AA14L, biotinylated]
B3
Biotin-DLGNMEENKKLEENNHKTEA (also called CD166 (CD6L)) [CD166 C-terminal peptide AA20L, biotinylated]

The binders below were run against T11, GEF PDZ-GST fusion protein (Homo sapiens (Human), UniProt Q8TEU7 293-400) (assay: A/G assays).
T11 construct: The label GEF is not explained in the excerpts
T11 sequence: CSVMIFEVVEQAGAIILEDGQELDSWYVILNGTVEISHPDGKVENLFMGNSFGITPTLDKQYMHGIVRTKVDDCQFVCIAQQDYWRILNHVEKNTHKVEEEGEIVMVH

Binding result, no binding:
B1
B2
Biotin-ARHRVTSYTSSSVNVSSNL [CDW128A (IL8RA) C-terminal peptide AA29.1L, biotinylated]
Biotin-TSGTGHNQTRALRASESGI (also called CD97 (CD55L)) [CD97 C-terminal peptide AA14L, biotinylated]
B3
Biotin-DLGNMEENKKLEENNHKTEA (also called CD166 (CD6L)) [CD166 C-terminal peptide AA20L, biotinylated]

These binders were tested against T12, NSP PDZ-GST fusion protein (Homo sapiens (Human), UniProt Q92743 370-466) (assay: A/G assays).
T12 construct: The label NSP is not explained in the excerpts
T12 sequence (Q92743 other isoform, or with tags, fused parts or gaps limits assumed): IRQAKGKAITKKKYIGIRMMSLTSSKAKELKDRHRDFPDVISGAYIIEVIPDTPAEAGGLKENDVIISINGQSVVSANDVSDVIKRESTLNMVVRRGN

Binding result, no binding:
B1
B2
Biotin-ARHRVTSYTSSSVNVSSNL [CDW128A (IL8RA) C-terminal peptide AA29.1L, biotinylated]
Biotin-TSGTGHNQTRALRASESGI (also called CD97 (CD55L)) [CD97 C-terminal peptide AA14L, biotinylated]
B3
Biotin-DLGNMEENKKLEENNHKTEA (also called CD166 (CD6L)) [CD166 C-terminal peptide AA20L, biotinylated]

Each binder was assayed against T13, GST-CASK PDZ domain fusion protein (Homo sapiens, UniProt O14936 486-575) (assay: A/G assays).
T13 construct: also called Homo sapiens CASK protein
T13 sequence: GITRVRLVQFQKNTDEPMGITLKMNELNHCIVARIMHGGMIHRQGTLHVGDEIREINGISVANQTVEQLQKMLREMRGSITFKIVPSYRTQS

Binding result, no binding:
B1
B2
Biotin-ARHRVTSYTSSSVNVSSNL [CDW128A (IL8RA) C-terminal peptide AA29.1L, biotinylated]
Biotin-TSGTGHNQTRALRASESGI (also called CD97 (CD55L)) [CD97 C-terminal peptide AA14L, biotinylated]
B3
Biotin-DLGNMEENKKLEENNHKTEA (also called CD166 (CD6L)) [CD166 C-terminal peptide AA20L, biotinylated]

These binders were tested against T14, GST-AF6 PDZ domain fusion protein (Homo sapiens (Human), UniProt P55196 1001-1093) (assay: A/G assays).
T14 construct: also called af-6 protein; not shown: glutathione S-transferase encoded by vector pGEX-3X (Pharmacia)
T14 sequence: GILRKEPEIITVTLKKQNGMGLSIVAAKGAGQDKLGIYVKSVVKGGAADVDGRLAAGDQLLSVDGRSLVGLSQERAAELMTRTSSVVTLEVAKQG

Binding result, no binding:
B1
B2
Biotin-ARHRVTSYTSSSVNVSSNL [CDW128A (IL8RA) C-terminal peptide AA29.1L, biotinylated]
Biotin-TSGTGHNQTRALRASESGI (also called CD97 (CD55L)) [CD97 C-terminal peptide AA14L, biotinylated]
B3
Biotin-DLGNMEENKKLEENNHKTEA (also called CD166 (CD6L)) [CD166 C-terminal peptide AA20L, biotinylated]

The binders below were run against T15, TAX-IP2L PDZ-GST fusion protein (Homo sapiens (Human), UniProt Q8TF64 107-197) (assay: A/G assays).
T15 construct: Order of GST and PDZ part and limits not seen in the excerpts
T15 sequence: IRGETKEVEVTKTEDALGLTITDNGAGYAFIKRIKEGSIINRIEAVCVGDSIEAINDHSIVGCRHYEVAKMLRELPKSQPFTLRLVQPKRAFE

Binding result, no binding:
B1
B2
Biotin-ARHRVTSYTSSSVNVSSNL [CDW128A (IL8RA) C-terminal peptide AA29.1L, biotinylated]
Biotin-TSGTGHNQTRALRASESGI (also called CD97 (CD55L)) [CD97 C-terminal peptide AA14L, biotinylated]
B3
Biotin-DLGNMEENKKLEENNHKTEA (also called CD166 (CD6L)) [CD166 C-terminal peptide AA20L, biotinylated]
